The source of these data is patent publication US20040224408A1, “THAP proteins as nuclear receptors for chemokines and roles in transcriptional regulation, cell proliferation and cell differentiation” (published 2004).

The target of one data set is T1, THAP1 THAP domain (Homo sapiens, UniProt Q9NVV9 SEQ:1-90).
T1 sequence: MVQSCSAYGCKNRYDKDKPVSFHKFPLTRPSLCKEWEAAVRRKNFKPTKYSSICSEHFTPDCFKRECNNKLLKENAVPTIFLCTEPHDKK
The data set can be described thus: EMSA; 20 mM Tris-HCl pH 7.5, 100 mM KCl, room temperature. To be noted: tags: C-terminal His6 (pET-21c); label: 32P. How it is done: To confirm that the THAP domain is a novel sequence specific DNA-binding domain, electrophoretic mobility shift assays (EMSA) were carried out using wild-type or mutant THAP domain responsive elements (THRE) determined by SELEX (see Example 28 and FIGS. 18 and 24). Double-stranded probes used in EMSA experiments were purified on 12% polyacrylamide gels, ³²P end labeled with T4 polynucleotide kinase and quantified by Cerenkov counting. About 20 ng of purified THAP domain from human THAP1 (prepared as described in Example 28) was incubated with 30000 cpm of the appropriate probe (about 2 ng). Binding reactions were carried out for 10 minutes at room temperature in 20 μl binding buffer (20 mM Tris-HCl pH 7.5, 100 mM KCl, 0.1% NP-40, 100 μg/ml BSA, 2.5 mM DTT, 5% glycerol, 200 ng poly (dI-dC)). Electrophoresis was performed on 8% (29:1) polyacrylamide gels containing 5% glycerol. Gels were run in 0.25×TBE at 150V and 4° C., dried and exposed on a phosphoimager screen (Molecular Dynamics). Sequences of wild type and mutant THRE oligonucleotides used in EMSA experiments were as follow (mutations are indicated in bold): wild-type probe 3, 5′-[…]-3′ (SEQ ID NO: 313); mutant probe 3mut1, 5′-[…]-3′ (SEQ ID NO: 314); mutant probe 3mut3, 5′-[…]-3′ (SEQ ID NO: 319); mutant probe 3mut4, 5′-[…]-3′ (SEQ ID NO: 320); mutant probe 3mut14, 5′-[…]-3′ (SEQ ID NO: 321); mutant probe 3mut5, 5′-[…]-3′ (SEQ ID NO: 322).
For competition experiments, 50-, 150-, and 250-fold molar excess of unlabelled wild-type (THRE competitor, probe 3) or mutant (non-specific competitor, probe 3mut1) THRE oligonucleotides were added to the reaction mixture just before the addition of the probe.

Data set [1] addresses T2, Glutathione S-transferase (GST) control protein (pGEX-2T) (UniProt P08515 1-218 = GST).
T2 construct: Negative control immobilized on glutathione sepharose; also called GST beads; immobilized GST alone
The data set can be described thus: GST pull-down, immobilized GST control, in vitro translated 35S-labelled chemokine. On the procedure:
To confirm the interaction observed in yeast two-hybrid system, we performed in vitro GST pull down assays. THAP1, expressed as a GST-tagged fusion protein and immobilized on glutathione sepharose, was incubated with radiolabeled chemokines that were translated in vitro.
In vitro-translated chemokines were generated with the TNT-coupled reticulocyte lysate system (Promega, Madison, Wis., USA) using as templates pGBKT7-CCL21, -CCL19, -CXCL9, -CXCL10 and CXCL11 chemokine vectors (see Example 32) or pCMV-SPORT6-CCL5 plasmid (Image clone No. 4185200). In vitro-translated IFNγ cytokine was generated similarly using as template plasmid pGBKT7-IFNγ. A 25 μvolume of ³⁵S-labelled chemokine was incubated with immobilized GST-THAP1 or GST proteins overnight at 4° C., in the following binding buffer: 10 mM NaPO4 pH 8.0, 140 mM NaCl, 3 mM MgCl₂, 1 mM dithiothreitol (DTT), 0.05% NP40, and 0.2 mM phenylmethyl sulphonyl fluoride (PMSF), 1 mM Na vanadate, 50 mM β-glycerophosphate, 25 μg/ml chymotrypsine, 5 μg/ml aprotinin, and 10 μg/ml leupeptin. Beads were then washed 5 times in 1 ml binding buffer. Bound proteins were eluted with 2×Laemmli SDS-PAGE sample buffer, fractionated by 10% SDS-PAGE and visualized by fluorography using Amplify (Amersham Pharmacia Biotech). GST/THAP1 specifically bound to chemokines CCL21, CCL19, CCL5, CXCL9, CXCL10 and CXCL11 but not cytokine IFNγ (FIGS. 19 and 20). […] CXCL10 also bound to immobilized GST-THAP1 (indicated by ++ in the column labelled “In vitro binding to GST-THAP1”).

Data set [2] has as its target T3, human THAP1 (THanatos (death)-Associated Protein-1), full length (human, UniProt Q9NVV9 1-213).
T3 construct: also called hTHAP1; FLJ10477
T3 sequence: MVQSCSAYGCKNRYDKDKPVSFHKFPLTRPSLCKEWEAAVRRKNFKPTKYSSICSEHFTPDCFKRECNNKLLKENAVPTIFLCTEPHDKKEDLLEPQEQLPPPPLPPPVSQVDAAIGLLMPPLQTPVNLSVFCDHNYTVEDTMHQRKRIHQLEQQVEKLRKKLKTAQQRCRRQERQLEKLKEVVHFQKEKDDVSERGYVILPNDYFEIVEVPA
Put plainly: yeast two-hybrid, pGADT7-THAP1 mutant with pGBKT7-THAP1 wild-type. How it is done:
Two-hybrid interaction between THAP1 mutants and THAP1 wild type was tested by cotransformation of AH109 with pGADT7-THAP1-C1, -C2, -C3, -N1, -N2 or -N3 and pGBKT7-THAP1 wild-type and selection of transformants by His and Ade double auxotrophy according to manufacturer's instructions ([…] two-hybrid system 3, Clontech).

The target of data set [3] is T3, human THAP1 (THanatos …). The data set can be described thus: yeast two-hybrid, pGADT7-THAP1 with pGBKT7-chemokine.
Text: […]

Data set [4] deals with T4, human chemokine SLC/CCL21, mature form (amino acids 24-134) (human, UniProt O00585 24-134).
T4 construct: also called SLC/6Ckine; SLC/CCL21 wild type
T4 sequence: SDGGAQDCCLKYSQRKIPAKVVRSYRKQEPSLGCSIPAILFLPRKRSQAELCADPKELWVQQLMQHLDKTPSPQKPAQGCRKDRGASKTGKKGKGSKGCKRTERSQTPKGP
The data set can be described thus: yeast two-hybrid, pGADT7-THAP1 mutant with pGBKT7-SLC/CCL21. How it is done: Two-hybrid interaction between THAP1 mutants and chemokine SLC/CCL21 was tested by cotransformation of AH109 with pGADT7-THAP1-C1, -C2, -C3, -N1, -N2 or -N3 and pGBKT7-SLC/CCL21 and selection of transformants by His and Ade double auxotrophy according to manufacturer's instructions ([…] two-hybrid system 3, Clontech). pGBKT7-SLC/CCL21 vector was generated by subcloning the BamHI SLC/CCL21 fragment from pGBT9-SLC (see example 1) into the unique BamHI cloning site of vector pGBKT7 (Clontech).

T2 sequence (P08515 whole entry): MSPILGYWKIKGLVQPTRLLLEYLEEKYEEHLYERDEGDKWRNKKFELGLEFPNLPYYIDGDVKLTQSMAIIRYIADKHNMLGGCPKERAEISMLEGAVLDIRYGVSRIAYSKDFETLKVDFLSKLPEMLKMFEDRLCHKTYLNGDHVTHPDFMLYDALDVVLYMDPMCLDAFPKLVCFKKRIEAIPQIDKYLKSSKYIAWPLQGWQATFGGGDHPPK

B1: 3mut4 (dsDNA)
DNA 1: AGCAAGTAAGTGCAAACTACTTCAT
DNA 2: ATGAAGTAGTTTGCACTTACTTGCT
For the molecule B1, the binding result with THAP1 THAP domain is reported as “no binding”.

B2: human chemokine I-TAC/CXCL11, mature form (amino acids 22-94) (ligand)
chain: FPMFKRGRCLCIGPGVKAVKVADIEKASIMYPSNNCDKIEVIITLKENKGQRCLNPKSKQARLIIKKVERKNF
notes: The range is stated on the GenBank entry; Tested as a Gal4-BD fusion (pGBKT7-CXCL11) and as in vitro translated 35S-labelled protein from that vector
Regarding B2, the binding result in data set [1] was “no binding”.

B3: THAP1-N3 deletion mutant (amino acids 1-192) (other)
chain: MVQSCSAYGCKNRYDKDKPVSFHKFPLTRPSLCKEWEAAVRRKNFKPTKYSSICSEHFTPDCFKRECNNKLLKENAVPTIFLCTEPHDKKEDLLEPQEQLPPPPLPPPVSQVDAAIGLLMPPLQTPVNLSVFCDHNYTVEDTMHQRKRIHQLEQQVEKLRKKLKTAQQRCRRQERQLEKLKEVVHFQKEKDD
notes: Tested as a Gal4-BD or Gal4-AD fusion, as in vitro translated 35S-labelled protein and as an EGFP fusion
Take B3: the binding result with human THAP1 (THanatos …) [2] is “binds”.

B4: human chemokine ELC/CCL19, mature form (amino acids 22-98) (ligand)
chain: GTNDAEDCCLSVTQKPIPGYIVRNFHYLLIKDGCRVPAVVFTTLRGRQLCAPPDQPWVERIIQRLQRTSAKMKRRSS
notes: The range is stated on the GenBank entry; Tested as a Gal4-BD fusion (pGBKT7-CCL19) and as in vitro translated 35S-labelled protein from that vector; also called MIP3b/CCL19
Take B4: the values for the binding result (in the data set with human THAP1 (THanatos …) [3]; in data set [1]) were “binds” and “no binding”, respectively.

B5: human chemokine MIG/CXCL9, mature form (amino acids 23-125) (ligand)
chain: TPVVRKGRCSCISTNQGTIHLQSLKDLKQFAPSPSCEKIEIIATLKNGVQTCLNPDSADVKELIKKWEKQVSQKKKQKNGKKHQKKKVLKVRKSQRSRQKKTT
notes: The range is stated on the GenBank entry; Tested as a Gal4-BD fusion (pGBKT7-CXCL9) and as in vitro translated 35S-labelled protein from that vector
As for B5, the values for the binding result (with human THAP1 (THanatos …) [3]; in data set [1]) were “binds” and “no binding”, respectively.

B6: THAP1-C2 deletion mutant (amino acids 120-213) (other)
chain: MPPLQTPVNLSVFCDHNYTVEDTMHQRKRIHQLEQQVEKLRKKLKTAQQRCRRQERQLEKLKEVVHFQKEKDDVSERGYVILPNDYFEIVEVPA
notes: as for B3
Consider B6, for which the binding result (in data set [4]; with human THAP1 (THanatos …) [2]) was “binds” throughout.

B7: 3mut14 (dsDNA)
DNA 1: AGCAAGTAAGGGCCAACTACTTCAT
DNA 2: ATGAAGTAGTTGGCCCTTACTTGCT
For B7, in the data set with THAP1 THAP domain, the binding result is “no binding”.

B8: 3mut5 (dsDNA)
DNA 1: AGCAAGTAAGGGAAAACTACTTCAT
DNA 2: ATGAAGTAGTTTTCCCTTACTTGCT
B8: the binding result in the data set with THAP1 THAP domain is recorded as “no binding”.

B9: 3mut3 (dsDNA)
DNA 1: AGCAAGTAAGGTCAAACTACTTCAT
DNA 2: ATGAAGTAGTTTGACCTTACTTGCT
As to B9, the binding result in the data set with THAP1 THAP domain is “no binding”.

B10: THAP1-C3 deletion mutant (amino acids 143-213) (other)
chain: MHQRKRIHQLEQQVEKLRKKLKTAQQRCRRQERQLEKLKEVVHFQKEKDDVSERGYVILPNDYFEIVEVPA
notes: as for B3
Turning to B10, the binding result (in data set [4]; with human THAP1 (THanatos …) [2]) was “binds” each time.

B11: THAP1-C1 deletion mutant (amino acids 90-213) (other)
chain: KEDLLEPQEQLPPPPLPPPVSQVDAAIGLLMPPLQTPVNLSVFCDHNYTVEDTMHQRKRIHQLEQQVEKLRKKLKTAQQRCRRQERQLEKLKEVVHFQKEKDDVSERGYVILPNDYFEIVEVPA
notes: Tested as a Gal4-BD or Gal4-AD fusion, as in vitro translated 35S-labelled protein and as an EGFP fusion; also called THAP1ΔTHAP; THAP1?THAP
Consider B11, for which the binding result in the data set with human THAP1 (THanatos …) [2] was “binds”.
